Target: NDR1 MBD and kinase domain (NDR1^MBD-KD, residues 12-418), wild type (human, UniProt Q15208 12-418)
Test: HDX-MS

Sequence of NDR1 MBD and kinase domain (NDR1^MBD-KD, residues 12-418), wild type (Q15208 12-418): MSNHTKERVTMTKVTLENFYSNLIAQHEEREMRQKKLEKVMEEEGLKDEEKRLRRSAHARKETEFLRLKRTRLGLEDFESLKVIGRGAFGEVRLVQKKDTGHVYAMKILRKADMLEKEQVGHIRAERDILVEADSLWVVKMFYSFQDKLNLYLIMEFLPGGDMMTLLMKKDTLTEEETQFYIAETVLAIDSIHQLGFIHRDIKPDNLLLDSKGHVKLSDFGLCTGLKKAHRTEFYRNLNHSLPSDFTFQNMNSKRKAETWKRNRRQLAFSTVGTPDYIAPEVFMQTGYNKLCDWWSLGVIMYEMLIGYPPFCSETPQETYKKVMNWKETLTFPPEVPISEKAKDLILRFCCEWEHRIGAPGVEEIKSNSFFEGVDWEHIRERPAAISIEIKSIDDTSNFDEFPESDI

binding result: binds
B1: MOB1A (amino acids 2-216), recombinant (natural protein, human, UniProt Q9H8S9 2-216, looked up)
chain: SFLFSSRSSKTFKPKKNIPEGSHQYELLKHAEATLGSGNLRQAVMLPEGEDLNEWIAVNTVDFFNQINMLYGTITEFCTEASCPVMSAGPRYEYHWADGTNIKKPIKCSAPKYIDYLMTWVQDQLDDETLFPSKIGVPFPKNFMSVAKTILKRLFRVYAHIYHQHFDSVMQLQEEAHLNTSFKHFIFFVQEFNLIDRRELAPLQELIEKLGSKDR
